By Kd is commonly meant the free concentration of one partner at which half of the binding sites on the other are occupied at equilibrium, for simple one-to-one binding.

The target of one experiment is T1, type B receptor (Homo sapiens, UniProt P25025).
T1 construct: expressed in transfected cells; host or cells: RBL2H3 rat basophilic leukemia cells
T1 sequence (P25025 1-360): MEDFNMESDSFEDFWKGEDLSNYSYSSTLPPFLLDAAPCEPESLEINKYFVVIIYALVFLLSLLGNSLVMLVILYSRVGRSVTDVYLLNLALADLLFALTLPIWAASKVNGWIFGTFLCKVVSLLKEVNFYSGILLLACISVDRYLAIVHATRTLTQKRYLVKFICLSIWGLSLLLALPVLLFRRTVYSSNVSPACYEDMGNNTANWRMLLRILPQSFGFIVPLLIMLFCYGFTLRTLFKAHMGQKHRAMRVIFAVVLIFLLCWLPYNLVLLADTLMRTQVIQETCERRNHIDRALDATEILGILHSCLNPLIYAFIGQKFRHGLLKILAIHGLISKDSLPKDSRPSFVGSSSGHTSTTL
The experiment in a line: Binding to RBL2H3 cells transfected with IL-8 receptor type B. The conditions noted are these: transfected RBL2H3 rat basophilic leukemia cells; read-out: Kd on cells expressing the type B receptor. Here is the method: Following incubation, cells were separated from unbound radioactivity as described herein.
Untransfected RBL2H3 cells express neither the type A nor type B receptors.

Experiment [1] has as its system chick chorioallantoic membrane (CAM). The experiment in a line: In vivo angiogenesis assay in chick chorioallantoic membrane (CAM). The following applies: 250 ng TyrRS molecule or 25 ng VEGF165 on filter disk, 72 hours. As to the method:
In vivo angiogenesis assays were conducted in chick chorioallantoic membrane (CAM) (Nicolaou et al., 1998, Bioorg. Med. Chem. 6:1185-208). Ten-day-old chick embryos were purchased from Mcintyre Poultry (Lakeside, Calif.) and were incubated at 37° C. and 70% humidity. A small hole was made with a small crafts drill (Dremel, Emerson Electric, Racine, Wis.) directly over the air sac at the end of the egg. The embryos were candled to determine a location to drill a second hole directly over embryonic blood vessels. […] A window was cut in the eggshell over the dropped CAM, exposing the CAM to direct access for experimental manipulation. Cortisone acetate-treated 5 mm filter disks were soaked with a particular protein sample (25 ng of VEGF165 or 250 ng of a given TyrRS molecule) and the filter disks added directly to the CAMs, which were relatively devoid of preexisting blood vessels. The windows were sealed with sterile tape and incubated at 37° C. […] After 72 hours, the CAM tissue associated with the filter disk was harvested and quantified using a stereomicroscope. Angiogenesis was assessed as the number of visible blood vessel branch points within the defined area of the filter disks. Each determination shown in FIG. 17 represents the mean from 5-8 embryos.

Another experiment deals with MPs. Briefly: MP chemotaxis assay (ChemoTX microchemotaxis chamber). It counts as cell-based, human. The conditions noted are these: sample proteins 1 nM, 3 hours. As to the method: Cells for the various cytokine assays described were prepared from acid citrate dextrose-treated blood of normal healthy volunteers. Human PMNs were isolated from the blood by centrifugation (700×g) over Histopaque 1077 and 1119 (Sigma). […] This procedure was repeated twice. Human MPs were isolated by centrifugation on Histopaque 1077 (Sigma). The mononuclear fraction was obtained, washed twice in Hanks' balanced salt solution, resuspended in RPMI-1640 medium (Sigma) containing 10% heat-inactivated fetal bovine serum (Sigma), plated in tissue culture flasks, and incubated in a 6% CO2 incubator at 37° C. for 1-2 hours (Kumagai et al., 1979, J. Immunol. Methods 29:17-25). Nonadherent cells were removed by washing the flasks three times with Hanks' balanced salt solution, and adherent cells were harvested by incubation with calcium-magnesium free phosphate-buffered saline containing 2 mM EDTA for 15 minutes at 4° C., followed by extensive washing.
MP chemotaxis assays were performed in a ChemoTX microchemotaxis chamber (Neuro Probe, Gaithersburg, Md.) containing polycarbonate filters (5 μm pores) with polyvinylpyrrolidone (PVP). MPs were suspended in RPMI-1640 medium containing 1% heat-inactivated fetal bovine serum, and 10^4 cells were added to the upper chamber. Sample proteins (1 nM) were added to the lower compartment of chemotaxis chambers, and the chambers were incubated for 3 hours. After incubation, nonmigrating cells were removed, membranes were fixed in methanol, and migrating cells were visualized with the HEMACOLOR™ stain set (EM Diagnostic Systems, Gibbstown, N.J.). Migrating cells were counted in high-power fields (HPFs). Each determination shown in FIG. 2 represents the average of nine HPF measurements.

B1: mini TyrRS: truncated TyrRS, residues 1-364 of full-length TyrRS, amino-terminal catalytic domain (protein)
chain: MGDAPSPEEKLHLITRNLQEVLGEEKLKEILKERELKIYWGTATTGKPHVAYFVPMSKIADFLKAGCEVTILFADLHAYLDNMKAPWELLELRVSYYENVIKAMLESIGVPLEKLKFIKGTDYQLSKEYTLDVYRLSSVVTQHDSKKAGAEVVKQVEHPLLSGLLYPGLQALDEEYLKVDAQFGGIDQRKIFTFAEKYLPALGYSKRVHLMNPMVPGLTGSKMSSSEEESKIDLLDRKEDVKKKLKKAFCEPGNVENNGVLSFIKHVLFPLKSEFVILRDEKWGGNKTYTAYVDLEKDFAAEVVHPGDLKNSVEVALNKLLDPIREKFNTPALKKLASAAYPDPSKQKPMAKGPAKNSEPEEVILEHHHHHH
modifications: His6 tag; Human mini TyrRS in pET20B
notes: truncated TyrRS, residues 1-364 of full-length TyrRS, amino-terminal catalytic domain
Consider B1, for which the Kd with type B receptor is over 200 nM. Moreover, in experiment [1], the “in vivo angiogenesis in chick CAM (blood vessel branch points)” value is “induced angiogenesis”. Moreover, the “MP chemotaxis (MP migration)” value in the experiment on MPs was “did not induce MP migration”.

The values are drawn from patent publication US9205136B2, “Human aminoacyl-tRNA synthetase polypeptides useful for the regulation of angiogenesis” (THE SCRIPPS RESEARCH INSTITUTE, priority 2000, dated 2015).
